# Experimental data reported in the RNAGym collection of RNA variant scans (doi:10.1093/molbev/msab373).
# B1: Azoarcus group I ribozyme (parent)
# chain: GUGCCUUGCGCCGGGAAACCACGCAAGGGAUGGUGUCAAAUUCGGCGAAACCUAAGCGCCCGCCCGGGCGUAUGGCAACGCCGAGCCAAGCUUCGGCGCCUGCGCCGAUGAAGGUGUAGAGACUAGACGGCACCCACCUAAGGCAAACGCUAUGGUGAAGGCAUAGUCCAGGGAGUGGCGAAAGUCACACAAACCGG
# Variants of: B1
# Experiment: reverse-splicing fitness (ratio to wild type); higher = more active; in vitro selection; Mg2+ level not given
# Procedure, shortened: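 An in vitro group I ribozyme library with randomized positions was T7-transcribed and gel-purified. In triplicate, 10 pmol RNA in EPPS pH 7.5 was reacted with 50 pmoles of a 30-nt RNA substrate for 1 h at 37 °C across several added MgCl2 levels (1–48 mM), then stopped with EDTA. Products were reverse transcribed from a substrate-complementary primer, PCR-amplified and sequenced (HiSeq 4000). Fitness is a variant's read proportion after selection over that before, normalised to wild type.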
row,Variant,reverse-splicing fitness
1,C82A A120U A145C U176A,0.0307
2,C82A A120U A145C U176G,0.00979
3,C82A A120U A145C U176C,0.0456
4,C82A A120G A145U C150G C169U U176C,0.0127
5,C82A A120G A145U C150G C169U U176G,0.00511
6,C82A A120G A145U C150G C169U U176A,0.0124
7,C82A A120G C150G C169A U176C,0.0109
8,C82A A120G C150G C169A U176G,0.00619
9,C82A A120G C150G C169A U176A,0.0116
10,C82A A120G C169A U176G,0.00374
11,C82A A120G C169A U176A,0.0187
12,C82A A120G C169A U176C,0.0236
13,C82A A120G A145C C169U,0.0141
14,C82A A120G A145C C169G,0.0188
15,C82A A120G A145C C169A,0.0124
16,C82A A120G A145C C150G C169G U176C,0.00676
17,C82A A120G A145C C150G C169G U176G,0.00341
18,C82A A120G A145C C150G C169G U176A,0.00918
19,C82A A120G A145U C169A U176A,0.0104
20,C82A A120G A145U C169A U176C,0.00947
21,C82A A120G A145U C169A U176G,0.00321

row,Variant,reverse-splicing fitness
1,C82A A120G A145C C150A C169U U176A,0.0192
2,C82A A120G A145C C150A C169U U176C,0.0107
3,C82A A120G A145C C150A C169U U176G,0.00478
4,C82A A120G A145U C150U C169U U176A,0.0201
5,C82A A120G A145U C150U C169U U176C,0.0174
6,C82A A120G A145U C150U C169U U176G,0.00449
7,C82A A120G A145G C150A U176C,0.0213
8,C82A A120G A145G C150A U176A,0.0108
9,C82A A120G A145G C150A U176G,0.00779
10,C82A A120G A145U C169U U176G,0.00329
11,C82A A120G A145U C169U U176C,0.0169
12,C82A A120G A145U C169U U176A,0.02
13,C82A A120G A145C C150U C169G,0.00984
14,C82A A120G A145C C150U C169A,0.00915
15,C82A A120G A145C C150U C169U,0.00958
16,C82A A120U A145C C150G C169G U176C,0.00192
17,C82A A120U A145C C150G C169G U176G,0.00211
18,C82A A120U A145C C150G C169G U176A,0.00256
19,C82A A120U A145C C150G U176C,0.00832
20,C82A A120U A145C C150G U176A,0.00523
21,C82A A120U A145C C150G U176G,0.00275

row,Variant,reverse-splicing fitness
1,C82A A120G C150A C169G U176C,0.0267
2,C82A A120G C150A C169G U176A,0.0195
3,C82A A120G C150A C169G U176G,0.00524
4,C82A A120G A145G C169A U176G,0.00382
5,C82A A120G A145G C169A U176A,0.0208
6,C82A A120G A145G C169A U176C,0.0273
7,C82A A120G A145U C150A,0.00826
8,C82A A120G A145U C150U,0.0167
9,C82A A120G A145U C150G,0.00781
10,C82A A120G A145U C150G C169A U176C,0.01
11,C82A A120G A145U C150G C169A U176G,0.00378
12,C82A A120G A145U C150G C169A U176A,0.0097
13,C82A A120U A145C C150U C169G U176G,0.00196
14,C82A A120U A145C C150U C169G U176C,0.00201
15,C82A A120U A145C C150U C169G U176A,0.00237
16,C82A A120G A145C C150U C169G U176A,0.0208
17,C82A A120G A145C C150U C169G U176G,0.00468
18,C82A A120G A145C C150U C169G U176C,0.0116
19,C82A A120G C150U C169G,0.0157
20,C82A A120G C150U C169U,0.0111
21,C82A A120G C150U C169A,0.0136

row,Variant,reverse-splicing fitness
1,C82A A120G A145C C150G C169G,0.00899
2,C82A A120G A145C C150G C169A,0.00915
3,C82A A120G A145C C150G C169U,0.00806
4,C82A A120U A145C C150U C169U U176A,0.00245
5,C82A A120U A145C C150U C169U U176C,0.00257
6,C82A A120U A145C C150U C169U U176G,0.00212
7,C82A A120G A145G C150G C169U U176C,0.0123
8,C82A A120G A145G C150G C169U U176A,0.0129
9,C82A A120G A145G C150G C169U U176G,0.00741
10,C82A A120G C150A C169U U176G,0.00815
11,C82A A120G C150A C169U U176A,0.0218
12,C82A A120G C150A C169U U176C,0.0215
13,C82A A120U A145C C150A U176C,0.0051
14,C82A A120U A145C C150A U176A,0.00439
15,C82A A120U A145C C150A U176G,0.00246
16,C82A A120G A145C C150G C169A U176G,0.00399
17,C82A A120G A145C C150G C169A U176C,0.00611
18,C82A A120G A145C C150G C169A U176A,0.00899
19,C82A A120G A145G C150G C169A U176G,0.00858
20,C82A A120G A145G C150G C169A U176A,0.0138
